Measured values: PMC8774053, “Genome-wide association of the metabolic shifts underpinning dark-induced senescence in Arabidopsis” (The Plant Cell, 2021)

B1: TAT1^A (accession CAM-61) (Arabidopsis thaliana) (protein)
chain: MENGATTTSTITIKGILSLLMESITTEEDEGGKRVISLGMGDPTLYSCFRTTQVSLQAVSDSLLSNKFHGYSPTVGLPQARRAIAEYLSRDLPYKLSQDDVFITSGCTQAIDVALSMLARPRANILLPRPGFPIYELCAKFRHLEVRYVDLLPENGWEIDLDAVEALADENTVALVVINPGNPCGNVYSYQHLMKIAESAKKLGFLVIADEVYGHLAFGSKPFVPMGVFGSIVPVLTLGSLSKRWIVPGWRLGWFVTTDPSGSFKDPKIIERFKKYFDILGGPATFIQAAVPTILEQTDESFFKKTLNSLKNSSDICCDWIKEIPCIDSSHRPEGSMAMMVKLNLSLLEDVSDDIDFCFKLAREESVILLPGTAVGLKNWLRITFAADATSIEEAFKRIKCFYLRHAKTQYPTI
B2: TAT1 (Col-0, At5g53970.1; positive control) (Arabidopsis thaliana) (protein)
chain: B1 chain

Substrate: N[C@@H](Cc1ccc(O)cc1)C(=O)O
Assay: purified protein
Type: biochemical, Arabidopsis thaliana
Conditions: 0-8 mM tyrosine, 100 mM alpha-ketoglutarate, 0.2 mM PLP, 100 mM Tris-HCl pH 8.5, 30 C, 5 min, constant not given in text, figure only

Protein | Km [µM] | kcat [s⁻¹]
B1 | 410 ± 30 | 45.85 ± 0.88
B2 | 390 ± 60 | 47.84 ± 1.72
